Experiments:
[1] = anti-Flag immunofluorescence with DAPI; settings: glycan lost; control: SFB-YTHDF1-WT, untreated
[2] = nuclear and cytoplasmic fractionation, immunoblot; settings: glycan lost; control: SFB-YTHDF1-WT

B1: YTH domain family 1 (YTHDF1): AFA (protein)
parent chain: MSATSVDTQRTKGQDNKVQNGSLHQKDTVHDNDFEPYLTGQSNQSNSYPSMSDPYLSSYYPPSIGFPYSLNEAPWSTAGDPPIPYLTTYGQLSNGDHHFMHDAVFGQPGGLGNNIYQHRFNFFPENPAFSAWGTSGSQGQQTQSSAYGSSYTYPPSSLGGTVVDGQPGFHSDTLSKAPGMNSLEQGMVGLKIGDVSSSAVKTVGSVVSSVALTGVLSGNGGTNVNMPVSKPTSWAAIASKPAKPQPKMKTKSGPVMGGGLPPPPIKHNMDIGTWDNKGPVPKAPVPQQAPSPQAAPQPQQVAQPLPAQPPALAQPQYQSPQQPPQTRWVAPRNRNAAFGQSGGAGSDSNSPGNVQPNSAPSVESHPVLEKLKAAHSYNPKEFEWNLKSGRVFIIKSYSEDDIHRSIKYSIWCSTEHGNKRLDSAFRCMSSKGPVYLLFSVNGSGHFCGVAEMKSPVDYGTSAGVWSQDKWKGKFDVQWIFVKDVPNNQLRHIRLENNDNKPVTNSRDTQEVPLEKAKQVLKIISSYKHTTSIFDDFAHYEKRQEEEEVVRKERQSRNKQ
For B1, the localisation_or_trafficking [1] was “changes” and the localisation_or_trafficking [2] was “changes”.
